# Test results from patent publication US20260250318A1, “COMPOSITIONS AND METHODS FOR CROSSING THE BLOOD BRAIN BARRIER” (VOYAGER THERAPEUTICS, INC., priority 2022, published 2026).
# T1: AAVR (universal AAV entry factor) expressed on HEK 293T cells (UniProt Q8IZA0 1-1049)
# T1 construct: whole, on cells; also called AAVR positive control
# T1 sequence: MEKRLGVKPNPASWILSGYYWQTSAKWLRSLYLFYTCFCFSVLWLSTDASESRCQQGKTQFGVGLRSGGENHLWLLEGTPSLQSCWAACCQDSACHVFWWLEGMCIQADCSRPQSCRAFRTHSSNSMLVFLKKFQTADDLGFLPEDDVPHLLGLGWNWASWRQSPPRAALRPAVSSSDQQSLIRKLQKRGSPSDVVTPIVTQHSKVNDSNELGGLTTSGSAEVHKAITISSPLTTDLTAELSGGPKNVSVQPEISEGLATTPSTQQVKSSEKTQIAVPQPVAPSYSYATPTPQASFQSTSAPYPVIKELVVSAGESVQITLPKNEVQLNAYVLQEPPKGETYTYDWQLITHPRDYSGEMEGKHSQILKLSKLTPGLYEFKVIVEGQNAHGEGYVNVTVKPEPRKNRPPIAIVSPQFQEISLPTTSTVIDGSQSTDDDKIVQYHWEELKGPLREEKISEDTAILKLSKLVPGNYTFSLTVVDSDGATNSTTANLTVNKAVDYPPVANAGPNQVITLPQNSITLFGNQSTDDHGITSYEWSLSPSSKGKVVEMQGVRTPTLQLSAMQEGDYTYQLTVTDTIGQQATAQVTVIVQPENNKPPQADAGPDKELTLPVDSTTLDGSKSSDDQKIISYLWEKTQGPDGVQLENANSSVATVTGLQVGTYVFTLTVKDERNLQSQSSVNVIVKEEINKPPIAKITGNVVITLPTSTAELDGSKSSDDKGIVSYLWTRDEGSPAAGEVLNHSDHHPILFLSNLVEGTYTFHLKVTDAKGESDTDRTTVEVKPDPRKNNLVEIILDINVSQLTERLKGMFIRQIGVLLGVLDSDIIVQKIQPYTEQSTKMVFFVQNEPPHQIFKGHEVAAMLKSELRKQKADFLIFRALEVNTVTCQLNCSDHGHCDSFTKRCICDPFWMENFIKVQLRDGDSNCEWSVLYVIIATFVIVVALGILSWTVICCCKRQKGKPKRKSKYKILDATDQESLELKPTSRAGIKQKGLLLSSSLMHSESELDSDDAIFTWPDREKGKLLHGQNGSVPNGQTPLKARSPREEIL
# T2: human ALPL expressed on cells (alkaline phosphatase tissue-nonspecific isozyme, NM_000478.4) (human, UniProt P05186 18-501)
# T2 sequence: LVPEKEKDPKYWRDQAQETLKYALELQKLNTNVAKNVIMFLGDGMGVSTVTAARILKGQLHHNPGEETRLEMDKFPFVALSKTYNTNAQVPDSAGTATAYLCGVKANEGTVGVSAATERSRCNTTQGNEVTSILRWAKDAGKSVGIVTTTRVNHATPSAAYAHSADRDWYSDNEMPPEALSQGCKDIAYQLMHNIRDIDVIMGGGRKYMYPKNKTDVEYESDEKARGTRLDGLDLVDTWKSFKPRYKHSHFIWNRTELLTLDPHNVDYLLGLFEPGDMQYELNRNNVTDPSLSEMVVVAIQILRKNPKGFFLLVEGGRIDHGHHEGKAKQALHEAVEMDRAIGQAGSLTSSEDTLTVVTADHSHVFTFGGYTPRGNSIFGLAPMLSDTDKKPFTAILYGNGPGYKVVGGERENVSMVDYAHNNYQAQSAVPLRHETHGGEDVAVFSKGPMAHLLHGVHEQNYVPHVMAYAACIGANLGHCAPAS
# T3: murine ALPL ortholog expressed on HEK 293T cells (NM_001287172.1) (mouse, UniProt P09242 18-501)
# T3 sequence: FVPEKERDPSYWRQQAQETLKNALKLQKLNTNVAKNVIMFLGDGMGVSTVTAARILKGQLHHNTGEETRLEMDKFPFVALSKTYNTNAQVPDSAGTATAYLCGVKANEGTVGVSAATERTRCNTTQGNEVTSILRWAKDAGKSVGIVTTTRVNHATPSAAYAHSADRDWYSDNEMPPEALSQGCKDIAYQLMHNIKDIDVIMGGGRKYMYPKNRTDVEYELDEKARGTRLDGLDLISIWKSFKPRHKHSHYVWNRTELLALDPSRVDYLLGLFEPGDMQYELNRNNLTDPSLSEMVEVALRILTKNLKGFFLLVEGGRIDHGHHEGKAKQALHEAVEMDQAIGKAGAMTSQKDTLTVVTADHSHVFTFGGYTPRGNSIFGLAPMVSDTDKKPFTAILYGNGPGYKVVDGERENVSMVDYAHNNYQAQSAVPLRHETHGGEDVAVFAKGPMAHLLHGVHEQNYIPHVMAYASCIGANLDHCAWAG
# T4: cynomolgus ALPL ortholog expressed on HEK 293T cells (XM_005544525) (Macaca fascicularis)
# T4 chain: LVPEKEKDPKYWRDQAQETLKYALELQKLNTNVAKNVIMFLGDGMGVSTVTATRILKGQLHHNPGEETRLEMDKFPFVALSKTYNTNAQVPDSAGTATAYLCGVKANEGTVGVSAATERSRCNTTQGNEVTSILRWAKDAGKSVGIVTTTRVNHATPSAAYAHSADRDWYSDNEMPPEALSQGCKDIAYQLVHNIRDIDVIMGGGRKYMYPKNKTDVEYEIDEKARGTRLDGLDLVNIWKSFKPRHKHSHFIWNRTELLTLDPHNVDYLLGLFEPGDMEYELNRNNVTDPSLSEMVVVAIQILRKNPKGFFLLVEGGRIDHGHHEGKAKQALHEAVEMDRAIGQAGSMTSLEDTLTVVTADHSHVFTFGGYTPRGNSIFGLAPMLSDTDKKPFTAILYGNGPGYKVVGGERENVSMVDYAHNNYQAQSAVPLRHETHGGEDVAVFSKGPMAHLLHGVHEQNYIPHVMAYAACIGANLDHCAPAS
# B1: TTM-002 capsid variant (AAV particle comprising the TTM-002 AAV9 capsid variant) (other)
# chain 1: MAADGYLPDWLEDNLSEGIREWWALKPGAPQPKANQQHQDNARGLVLPGYKYLGPGNGLDKGEPVNAADAAALEHDKAYDQQLKAGDNPYLKYNHADAEFQERLKEDTSFGGNLGRAVFQAKKRLLEPLGLVEEAAKTAPGKKRPVEQSPQEPDSSAGIGKSGAQPAKKRLNFGQTGDTESVPDPQPIGEPPAAPSGVGSLTMASGGGAPVADNNEGADGVGSSSGNWHCDSQWLGDRVITTSTRTWALPTYNNHLYKQISNSTSGGSSNDNAYFGYSTPWGYFDFNRFHCHFSPRDWQRLINNNWGFRPKRLNFKLFNIQVKEVTDNNGVKTIANNLTSTVQVFTDSDYQLPYVLGSAHEGCLPPFPADVFMIPQYGYLTLNDGSQAVGRSSFYCLEYFPSQMLRTGNNFQFSYEFENVPFHSSYAHSQSLDRLMNPLIDQYLYYLSKTINGHDSPHKSGQNQQTLKFSVAGPSNMAVQGRNYIPGPSYRQQRVSTTVTQNNNSEFAWPGASSWALNGRNSLMNPGPAMASHKEGEDRFFPLSGSLIFGKQGTGRDNVDADKVMITNEEEIKTTNPVATESYGQVATNHQSAQAQAQTGWVQNQGILPGMVWQDRDVYLQGPIWAKIPHTDGNFHPSPLMGGFGMKHPPPQILIKNTPVPADPPTAFNKDKLNSFITQYSTGQVSVEIEWELQKENSKRWNPEIQYTSNYYKSNNVEFAVNTEGVYSEPRPIGTRYLTRNL
# chain 2: TAPGKKRPVEQSPQEPDSSAGIGKSGAQPAKKRLNFGQTGDTESVPDPQPIGEPPAAPSGVGSLTMASGGGAPVADNNEGADGVGSSSGNWHCDSQWLGDRVITTSTRTWALPTYNNHLYKQISNSTSGGSSNDNAYFGYSTPWGYFDFNRFHCHFSPRDWQRLINNNWGFRPKRLNFKLFNIQVKEVTDNNGVKTIANNLTSTVQVFTDSDYQLPYVLGSAHEGCLPPFPADVFMIPQYGYLTLNDGSQAVGRSSFYCLEYFPSQMLRTGNNFQFSYEFENVPFHSSYAHSQSLDRLMNPLIDQYLYYLSKTINGHDSPHKSGQNQQTLKFSVAGPSNMAVQGRNYIPGPSYRQQRVSTTVTQNNNSEFAWPGASSWALNGRNSLMNPGPAMASHKEGEDRFFPLSGSLIFGKQGTGRDNVDADKVMITNEEEIKTTNPVATESYGQVATNHQSAQAQAQTGWVQNQGILPGMVWQDRDVYLQGPIWAKIPHTDGNFHPSPLMGGFGMKHPPPQILIKNTPVPADPPTAFNKDKLNSFITQYSTGQVSVEIEWELQKENSKRWNPEIQYTSNYYKSNNVEFAVNTEGVYSEPRPIGTRYLTRNL
# chain 3: MASGGGAPVADNNEGADGVGSSSGNWHCDSQWLGDRVITTSTRTWALPTYNNHLYKQISNSTSGGSSNDNAYFGYSTPWGYFDFNRFHCHFSPRDWQRLINNNWGFRPKRLNFKLFNIQVKEVTDNNGVKTIANNLTSTVQVFTDSDYQLPYVLGSAHEGCLPPFPADVFMIPQYGYLTLNDGSQAVGRSSFYCLEYFPSQMLRTGNNFQFSYEFENVPFHSSYAHSQSLDRLMNPLIDQYLYYLSKTINGHDSPHKSGQNQQTLKFSVAGPSNMAVQGRNYIPGPSYRQQRVSTTVTQNNNSEFAWPGASSWALNGRNSLMNPGPAMASHKEGEDRFFPLSGSLIFGKQGTGRDNVDADKVMITNEEEIKTTNPVATESYGQVATNHQSAQAQAQTGWVQNQGILPGMVWQDRDVYLQGPIWAKIPHTDGNFHPSPLMGGFGMKHPPPQILIKNTPVPADPPTAFNKDKLNSFITQYSTGQVSVEIEWELQKENSKRWNPEIQYTSNYYKSNNVEFAVNTEGVYSEPRPIGTRYLTRNL
# What was measured:
# [1] = molecular target: T1, AAVR (universal AAV entry factor) …; experiment: binding/internalization: AAV incubated 2 or 3 h with AAVR transfected HEK 293T cells, washed, viral genomes quantified
# [2] = molecular target: T2, human ALPL expressed on cells (alkaline …); experiment: cell-based or functional assay
# [3] = molecular target: T2, human ALPL expressed on cells (alkaline …); experiment: cell-based or functional assay; remark: listed apart in the source
# [4] = molecular target: T3, murine ALPL ortholog expressed on HEK …; experiment: cell-based or functional assay
# [5] = molecular target: T4, cynomolgus ALPL ortholog expressed on …; experiment: cell-based or functional assay
binder,measurement,setting,value
B1,fold change in viral gene expression (2^-ΔΔCT) relative to pCMV6 transfected cells,[1],3.2 fold
same,fold change in luciferase activity relative to the pCMV6 control cells (cells transfected with ALPL),[2],24 fold
same,fold change in luciferase activity relative to the pCMV6 control cells (Human ALPL),[3],60.3 fold
same,fold change in luciferase activity relative to the pCMV6 control cells (Murine ALPL),[4],57.2 fold
same,fold change in luciferase activity relative to the pCMV6 control cells (Cynomolgus ALPL),[5],81.5 fold
